The labels stand for the following.
B1: Hairpin Ribozyme (parent)
chain: GUCCUCUUUCACGUGCGCGUGAAAGAGAGAAGUGAACCAGAGAAACACACGUUGUGGUAUAUUACCUGGUA

Variants of B1 are the subject of this series. Description: self-cleavage, relative activity (ratio to wild type); higher = more cleavage; co-transcriptional.
In the case of C46A U52A, the self-cleavage amounted to 0.196.

Regarding C46U A64C, the self-cleavage amounted to 0.0758. In the case of A45G A64G, the self-cleavage stood at 0.1.

Take A45G A64C: the self-cleavage stood at 0.216. As to C46U U70C, the self-cleavage was determined as 0.161. In the case of A45C C46U, the self-cleavage is 0.067. For A45C C46A, the self-cleavage stood at 0.152. As to A47U G57U, the self-cleavage worked out at 0.0955.

Regarding C46A G57U, the self-cleavage came to 0.123. Turning to C46U G68A, the self-cleavage was found to be 0.0828. To C46U G68U belongs 0.119; to A45C C65A, 0.2; to C46U U62G, 0.237. The value for C46U U62C was 0.213; that for C48G U58C was 0.143; that for A49C A71U was 0.27. On to C48U G51A, for which the self-cleavage was 0.082. The value for C48U G51C was 0.0415; that for A47C U58C was 0.318; that for C46G U63A was 0.279.

Regarding C48G A64C, the self-cleavage is 0.242. With A47U U62A, the self-cleavage is 0.114. To C46G A47G belongs 0.136. In the case of C46G A47C, the self-cleavage worked out at 0.125. The value for A47U G68U was 0.224; that for C46A A59U was 0.109.

As for C46A A59C, the self-cleavage is 0.3. For A45U U63C, the self-cleavage was determined as 0.287. With A47C U62G, the self-cleavage was determined as 0.227. With A47U G51U, the self-cleavage was found to be 0.166. To A47U G51C belongs 0.31; to A47C C65G, 0.203; to A47G A61G, 0.219. Take A45G G56C: the self-cleavage stood at 0.0912.

Regarding C48G U60A, the self-cleavage worked out at 0.121.

Turning to C48G U60G, the self-cleavage stood at 0.108.

Regarding A47G U55G, the self-cleavage amounted to 0.139. For A47G U55A, the self-cleavage is 0.184.

Take A45G U60C: the self-cleavage was determined as 0.0993. Take A45G U60G: the self-cleavage was determined as 0.187. For A44U U63C, the self-cleavage stood at 0.135. For A44U U63A, the self-cleavage is 0.141. Regarding A47U G56U, the self-cleavage turned out to be 0.148. The value for A45U G54U was 0.0699; that for A45U G54C was 0.23.

Take A45U G54A: the self-cleavage came to 0.138. The value for C46G U53A was 0.0595. On to C46G U53C, for which the self-cleavage came out at 0.0868.

Turning to C46A A47C, the self-cleavage is 0.0767. On to C48G C66G, for which the self-cleavage is 0.105. Take A45G C46U: the self-cleavage is 0.223. To A45G C46A belongs 0.17; to A47G C66G, 0.128.

As for A45U G56U, the self-cleavage came to 0.208.

In the case of A47G C48A, the self-cleavage is 0.122.

With A47C U53G, the self-cleavage turned out to be 0.174. The value for A47C U53C was 0.192; that for A45C A49U was 0.202; that for A49C G51A was 0.0757. As for C46U C48G, the self-cleavage is 0.141. To A49C G56A belongs 0.17; to C48U U58C, 0.333; to C48A U58G, 0.165.

C48A U58A: the self-cleavage was found to be 0.0644. To A49C U52C belongs 0.16. To C48A G54A belongs 0.169; to A45C G56C, 0.312.

Turning to A45C G56A, the self-cleavage worked out at 0.144. Consider A45G A61C, for which the self-cleavage was 0.142.

As for A45C G57C, the self-cleavage came out at 0.105. In the case of C46U G51A, the self-cleavage is 0.132.

On to A47G C65G, for which the self-cleavage was determined as 0.112.

In the case of A45G G51A, the self-cleavage came to 0.161. To A45U U55A belongs 0.197; to C48U C50A, 0.0417. For the variant C48U C50G, the self-cleavage worked out at 0.109. The value for C48U C50U was 0.0683. For C48A G57A, the self-cleavage was found to be 0.121. To A45C G68C belongs 0.119; to C46U A61C, 0.0903; to C46U A61G, 0.129.

With C46U U52C, the self-cleavage was found to be 0.215. On to C48A U62G, for which the self-cleavage was found to be 0.0864. Turning to A47C A71C, the self-cleavage amounted to 0.72.

Take C48A U70C: the self-cleavage is 0.27.

C46A G54U: the self-cleavage was 0.307. In the case of A45U U62A, the self-cleavage was determined as 0.149. For A45U U62G, the self-cleavage was found to be 0.178. To C46A G69A belongs 0.13. To A45C U62C belongs 0.141.

A47G U60G: the self-cleavage was 0.0656.

Regarding A45U U52A, the self-cleavage is 0.122. A45U A49G: the self-cleavage was found to be 0.165. To A45U A49C belongs 0.134; to A45G U70C, 0.0703; to C48A C65G, 0.132.

Regarding C48A C65U, the self-cleavage was found to be 0.189. Take A45U U70C: the self-cleavage was 0.056.

For A45U U70A, the self-cleavage came out at 0.0397. To A45U U70G belongs 0.24.

On to A47G U52C, for which the self-cleavage was determined as 0.124. As to C48U U53C, the self-cleavage was determined as 0.233. For A45G U53A, the self-cleavage came out at 0.234. A47U C48G: the self-cleavage is 0.137. Regarding C46G C48A, the self-cleavage amounted to 0.204. The value for C46G C48U was 0.156; that for C48U C65A was 0.086; that for C48U C65G was 0.0909. As to A45G U62C, the self-cleavage amounted to 0.0923. Turning to A47U C50U, the self-cleavage amounted to 0.171. Consider A44U A59G, for which the self-cleavage is 0.253. The value for A44U A59U was 0.0331; that for A45G G68U was 0.223.

Regarding A45G G68A, the self-cleavage was found to be 0.122. To A45C A64C belongs 0.138. The value for A45C A64U was 0.223.

On to C48G G57C, for which the self-cleavage stood at 0.169. The value for C46A U62G was 0.0929; that for C46A G51A was 0.215; that for C46A G51U was 0.146.

As for A47U A64U, the self-cleavage amounted to 0.123. The value for A47U A64G was 0.0969.

For the variant C46G U52C, the self-cleavage turned out to be 0.144. The value for C46G U52G was 0.232.

Consider C46G U52A, for which the self-cleavage was 0.189. To C46U A49G belongs 0.24; to C46U A49U, 0.239. To A45C G51U belongs 0.116; to C48A U60A, 0.134; to A45U C50G, 0.146.

As for A45C A71G, the self-cleavage worked out at 0.154. For A45U C48U, the self-cleavage was determined as 0.135. Take A45U C48A: the self-cleavage came to 0.14. For the variant C48U G69C, the self-cleavage stood at 0.124. The value for C48U G69U was 0.182; that for C48U U60C was 0.389; that for C48U U60G was 0.125. To A49C C66G belongs 0.301. To A49C C66U belongs 0.183; to C48A U67G, 0.122. On to C48A G56C, for which the self-cleavage turned out to be 0.131.

Turning to C48G U70C, the self-cleavage is 0.302. The value for A47C G68U was 0.298. As to A45U G57A, the self-cleavage stood at 0.17. C46G C65A: the self-cleavage was 0.174. To A44U C46U belongs 0.193; to C46A, 0.148.

As to C46U, the self-cleavage was 0.149.

Consider C46G, for which the self-cleavage is 0.15. The value for C48A U63A was 0.174.

As for C48A U63G, the self-cleavage was determined as 0.229. Turning to A47C G51C, the self-cleavage was found to be 0.377. On to C48U A61U, for which the self-cleavage worked out at 0.151. Regarding A49C C65A, the self-cleavage was found to be 0.225. The value for A49C C65G was 0.168; that for C46A U58A was 0.198. Regarding C46A U58G, the self-cleavage stood at 0.158. The value for A45U A61G was 0.184; that for A47G G69C was 0.112; that for A47G G69U was 0.118. As for C48A A64G, the self-cleavage came to 0.127. To A47C C48A belongs 0.164; to C48U U55C, 0.132.

With C48U C66G, the self-cleavage worked out at 0.138.

For C48U C66U, the self-cleavage was 0.194.

For the variant A47G A59G, the self-cleavage amounted to 0.196. For C46G U60G, the self-cleavage was determined as 0.151.

(Values after the RNAGym collection of RNA variant scans (doi:10.7554/elife.80360).)
